Experimental findings from patent US20250027068A1 are described below.

B1: VRT-35 (Fc fusion)
chain: VTSVWTKGVTPPANFTQGEDVFHAPYKANQGWYDITKTFNRKDNLLCGAATAGNMLHWWFDQNKDQIEAYLKEHPEKQKINFKGEQLFDVKEAIDTKDDQTNSKLFEYFKEKAFPYLSTKHLGVFPDHVLDMFINGYRLSLTNHGPTPVKEGSKDKRGGIFDAVFTRGVQSKLLTSRHDFKEKTLKEISDLIKQELTEGKALALSHTYANVRINHVINLWGADFDSNGNLEAIYVTDSDTEASIGMKKYFVGVNKAGKVAISAKEIEDDNIGAQVLGLFTLSTGQDIWNQTNDKTHTCPPCPAPEAAGAPSVFLFPPKPKDTLMISRTPEVTCVVVDVSHEDPEVKFNWYVDGVEVHNAKTKPREEQQNSTYRVVSVLTVLHQDWLNGKEYKCKVSNKALKAPIEKTISKAKGQPREPQVYTLPPSRDELTKNQVSLTCLVKGFYPSDIAVEWESNGQPENNYKTTPPVLDSDGSFFLYSKLTVDKSRWQQGNVFSCSVMHEALHNHYTQKSLSLSPG
B2: VRT-36 (Fc fusion)
chain: VTSVWTKGVTPPANFTQGEDVFHAPYVANQGWYDITKTFNRKDNLLCGAATAGNMLHWWFDQNKDQIERYLKEHPEKQKINFKGEQLFDVKEAIDTKDSQTDSKLFEYFKEKAFPYLSTKHLGVFPDHVLDMFINGYRLSLTNHGPTPVKEGSKDKRGGIFDAVFTRGVQSKLLTSRHDFKEKTLKEISDLIKQELTEGKALGLSHTYANVRINHVINLWGADFDSEGNLKAIYVTDSDTEASIGMKKYFVGVNKAGKVAISAKEIKEDNIGAQVLGLFTLSTGQDIWNQTNDKTHTCPPCPAPEAAGAPSVFLFPPKPKDTLMISRTPEVTCVVVDVSHEDPEVKFNWYVDGVEVHNAKTKPREEQQNSTYRVVSVLTVLHQDWLNGKEYKCKVSNKALKAPIEKTISKAKGQPREPQVYTLPPSRDELTKNQVSLTCLVKGFYPSDIAVEWESNGQPENNYKTTPPVLDSDGSFFLYSKLTVDKSRWQQGNVFSCSVMHEALHNHYTQKSLSLSPG
B3: VRT-31 (Fc fusion)
chain: QITSVWTKGVTPLTPEQFRYNNEDVIHAPYLANQGWYDITKTFNGKDNLLCGAATAGNMLHWWFDQNKTEIEAYLKKHPEKQKIIFNNQELFDLKAAIDTKDSQTNSQLFNYFRDKAFPGLSARQLGVFPDLVLDMFINGYYLNVFKTQSTDVNRPYQDKDKRGGIFDAVFTRGVQTTLLTARHDLKNKGLNEISTLIKQELTEGKALALSHTYANVRISHVINLWGADFNAEGNLEAIYVTDSDSNASIGMKKYFVGVNAHGKVAISAKKIEGENIGAQVLGLFTLSSGKDIWQKLSDKTHTCPPCPAPEAAGAPSVFLFPPKPKDTLMISRTPEVTCVVVDVSHEDPEVKFNWYVDGVEVHNAKTKPREEQQNSTYRVVSVLTVLHQDWLNGKEYKCKVSNKALKAPIEKTISKAKGQPREPQVYTLPPSRDELTKNQVSLTCLVKGFYPSDIAVEWESNGQPENNYKTTPPVLDSDGSFFLYSKLTVDKSRWQQGNVFSCSVMHEALHNHYTQKSLSLSPG
B4: VRT-38 (Fc fusion)
chain: VTSVWTKGVTPPADFTQGEDVFHAPYVANQGWYDITKTFNRKDNLLCGAATAGNMLHWWFDQNKEYIEAYLKKHPEKQKIIFGDQELLDVRKAINTKGSQKNSELFNYFRDKAFPNLSARRLGVFPDLVLDMFINGYYLNVTKTQTTDVNRTYQEKDKRGGIFDAVFTRGVQSKLLTSRHDFKEKGLKEISDLIKQELTEGKALGLSHTYANVRINHVINLWGADFDSDGNLKAIYVTDSDTRASIGMKKYFVGVNAAGKVAISAKEIKEDNIGAQVLGLFTLSTGQDIWNQTNDKTHTCPPCPAPEAAGAPSVFLFPPKPKDTLMISRTPEVTCVVVDVSHEDPEVKFNWYVDGVEVHNAKTKPREEQQNSTYRVVSVLTVLHQDWLNGKEYKCKVSNKALKAPIEKTISKAKGQPREPQVYTLPPSRDELTKNQVSLTCLVKGFYPSDIAVEWESNGQPENNYKTTPPVLDSDGSFFLYSKLTVDKSRWQQGNVFSCSVMHEALHNHYTQKSLSLSPG
B5: VRT-37 (Fc fusion)
chain: VTSVWTKGVTPPTNFTYGEDVLHAPYVANQGWYDITKTFNRKDNLLCGAATAGNMLHWWFDQNKEQIENYLKKHPEKQKINFKGEQLFDVKEAIDTKDSQLDSKLFEYFKEKAFPYLSTKHLGVFPDHVIDMFINGYRLSLTNHGPTPVKRGSKDKRGGIFDAVFTRGVQSKLLTNRHDFKEKTLKEISDLIKQELTEGKALGISHTYANVRINHVINLWGADFDAEGNLEAIYVTDSDTEASIGMKKYFVGVNKNGKVAISAKEIEEDNIGAQVLGLFTLSTGQDIWNQTNDKTHTCPPCPAPEAAGAPSVFLFPPKPKDTLMISRTPEVTCVVVDVSHEDPEVKFNWYVDGVEVHNAKTKPREEQQNSTYRVVSVLTVLHQDWLNGKEYKCKVSNKALKAPIEKTISKAKGQPREPQVYTLPPSRDELTKNQVSLTCLVKGFYPSDIAVEWESNGQPENNYKTTPPVLDSDGSFFLYSKLTVDKSRWQQGNVFSCSVMHEALHNHYTQKSLSLSPG
B6: VRT-33 (Fc fusion)
chain: SQTEDSESLQRLRDIEDFQAEKKKQNVVYTKWLDGVDVKDHDFRKIVDGNIAYYATPLLNGRGFYDINKDFNRDNDKCAAAVAANMFHYWLDRNRDNVDRFLRQNPEKHGIIELPDGQLKLSDFLNTYESDDGYRDKSKLFDFISNNFNGPVWTDKLLDNYINGYAYNYKYGRTIEDSTKNTSKINFFKEVFNEKILTNNHSIRNQNEFSVLLSEALYTGKAIGLSYGPAGLRHSLGHIISVWGADLDADGNVVAIYVTDSDDKKLTIGDERVGLKRYKISTDDEGRLRLTAYEETHNTGGQIRGLWTLDTGKQAWADYFDKTEQTGTDQAEQDKTHTCPPCPAPEAAGAPSVFLFPPKPKDTLMISRTPEVTCVVVDVSHEDPEVKFNWYVDGVEVHNAKTKPREEQQNSTYRVVSVLTVLHQDWLNGKEYKCKVSNKALKAPIEKTISKAKGQPREPQVYTLPPSRDELTKNQVSLTCLVKGFYPSDIAVEWESNGQPENNYKTTPPVLDSDGSFFLYSKLTVDKSRWQQGNVFSCSVMHEALHNHYTQKSLSLSPG
B7: VRT-34 (Fc fusion)
chain: SQTEDSESLQRLRDIEDFQAEKKKQNVVYTKWLDGVDVKDHDFRKIVDGNIAYYATPLLNGRGFYDINKDFNRDNDKCAAAVAANMFHYWLDINRDNVDRFLRQNPEKHGIIELPDGQLKLSDFLNTYESDHGYRDKSKLFDFISNNFNGPVWTDKLLDNYINGYAYNYKYGRTIEDSTKNTSKINFFKEVFNEKILTNNHSIRNQNEFSVLLSEALYTGKAIGLSYGPAGLRHSLGHIISVWGADLDADGNVVAIYVTDSDDKKLTIGDERVGLKRYKISTDDEGRLRLTAYEETHNTGGQIRGLWTLDTGKQAWADYFDKTEQTGTDQAEQDKTHTCPPCPAPEAAGAPSVFLFPPKPKDTLMISRTPEVTCVVVDVSHEDPEVKFNWYVDGVEVHNAKTKPREEQQNSTYRVVSVLTVLHQDWLNGKEYKCKVSNKALKAPIEKTISKAKGQPREPQVYTLPPSRDELTKNQVSLTCLVKGFYPSDIAVEWESNGQPENNYKTTPPVLDSDGSFFLYSKLTVDKSRWQQGNVFSCSVMHEALHNHYTQKSLSLSPG
B8: VRT-32 (Fc fusion)
chain: QITSVWTKGVTPPTPEQFRYNNEDVFHAPYTAHQGWYDITKTFDGKDNLLCGAATAGNMLHWWFDQNKTEIEAYLSKHPEKQKIIFNNQELFDLKAAIDTKDSQTNSALFNYFRDKAFPGLSARQLGVFPDLVLDMFINGYYLNVFKTQSTDVNRPYQDKDKRGGIFDAVFTRGVQTTLLTARHDLKNKTLNDISTIIKQELTEGRALALSHTYANVRISHVINLWGADFNAEGNLEAIYVTDSDSNASIGMKKYFVGVNASGKVAISAKKIEGENIGAQVLGLFTLSSGKDIWQKLSDKTHTCPPCPAPEAAGAPSVFLFPPKPKDTLMISRTPEVTCVVVDVSHEDPEVKFNWYVDGVEVHNAKTKPREEQQNSTYRVVSVLTVLHQDWLNGKEYKCKVSNKALKAPIEKTISKAKGQPREPQVYTLPPSRDELTKNQVSLTCLVKGFYPSDIAVEWESNGQPENNYKTTPPVLDSDGSFFLYSKLTVDKSRWQQGNVFSCSVMHEALHNHYTQKSLSLSPG
B9: VRT-39 (Fc fusion)
chain: ITSVWTKGVTPPAKFTQGEDVFHAPYVANQGWYDITKTFNRKDNLLCGAATAGNMLHWWFDQNKEEIEAYLKKHPEKQKIIFGDQELLDVRKVINTKDSQTNSALFNYFKDKAFPNLSARRLGVFPDLVLDMFINGYYLNVYKTQTTDVNRTYQTKDRRGGIFDAVFTRGVQSKLLTERHDFKEKTLKEISDLIKQELTEGKALGLSHTYANVRINHVINLWGADFDSNGNLEAIYVTDSDTRASIGMKKYFVGVNAAGKVAISAKEIKEDNIGAQVLGLFTLSTGQDIWNQTNDKTHTCPPCPAPEAAGAPSVFLFPPKPKDTLMISRTPEVTCVVVDVSHEDPEVKFNWYVDGVEVHNAKTKPREEQQNSTYRVVSVLTVLHQDWLNGKEYKCKVSNKALKAPIEKTISKAKGQPREPQVYTLPPSRDELTKNQVSLTCLVKGFYPSDIAVEWESNGQPENNYKTTPPVLDSDGSFFLYSKLTVDKSRWQQGNVFSCSVMHEALHNHYTQKSLSLSPG

This test deals with pooled human IgG (human). Briefly: cell-based or functional assay.
B1 had an Enzyme Activity Endpoint Assay: Fab′2 of 0 ng/µL, an Enzyme Activity Endpoint Assay: Fc of 25 ng/µL, an Enzyme Activity Endpoint Assay: IgG of 1020 ng/µL and an Enzyme Activity Endpoint Assay: scIgG of 22 ng/µL.
The molecule B2 registered an Enzyme Activity Endpoint Assay: Fab′2 of 0 ng/µL, an Enzyme Activity Endpoint Assay: Fc of 112 ng/µL, an Enzyme Activity Endpoint Assay: IgG of 1030 ng/µL and an Enzyme Activity Endpoint Assay: scIgG of 62 ng/µL.
Taken in the same sequence, the figures for B3 were 0 ng/µL, 27 ng/µL, 1020 ng/µL and 21 ng/µL.
For B4, the Enzyme Activity Endpoint Assay: Fab′2 worked out at 0 ng/µL, the Enzyme Activity Endpoint Assay: Fc was found to be 27 ng/µL, the Enzyme Activity Endpoint Assay: IgG is 990 ng/µL and the Enzyme Activity Endpoint Assay: scIgG amounted to 20 ng/µL.
B5 had an Enzyme Activity Endpoint Assay: Fab′2 of 0 ng/µL, an Enzyme Activity Endpoint Assay: Fc of 101 ng/µL, an Enzyme Activity Endpoint Assay: IgG of 854 ng/µL and an Enzyme Activity Endpoint Assay: scIgG of 38 ng/µL.
Taken in the same sequence, the figures for B6 were 0 ng/µL, 5 ng/µL, 1040 ng/µL and 21 ng/µL.
Taken in the same sequence, the figures for B7 were 0 ng/µL, 5 ng/µL, 1020 ng/µL and 20 ng/µL.
On the same counts, the results for B8 are 0 ng/µL, 96 ng/µL, 803 ng/µL and 79 ng/µL.
B9: the Enzyme Activity Endpoint Assay: Fab′2 was 0 ng/µL, the Enzyme Activity Endpoint Assay: Fc worked out at 27 ng/µL, the Enzyme Activity Endpoint Assay: IgG worked out at 1020 ng/µL and the Enzyme Activity Endpoint Assay: scIgG was 22 ng/µL.
